Reference: US6570069B1, “Nucleic acids encoding plant inhibitors of apoptosis and transgenic cells and plants expressing them” (priority 2000, dated 2003)

Legend:
[1] = system: Bax-induced apoptosis in HEK293 cells; test: Bax-induced apoptosis in HEK293 cells (co-transfection, DAPI nuclear morphology); type: cell-based, human; settings: IAP plasmid co-transfected with Bax into 293 cells; % apoptosis 24-36 hours later
Description: (§1) HEK293 and 293T cells were maintained in DMEM (Irvine Scientific) supplemented with 10% fetal bovine serum, 1 mM L-glutamine and antibiotics. 293 cells (10^6) were co-transfected using Superfect with 0.1 μg Green Fluoresence Protein (GFP) marker plasmid pEGFP (Clontech), 0.25 ug of either pcDNA3-Bax or pcDNA3-Fas, and 1.5 μg of either pcDNA3myc-SfIAP or pcDNA3myc-CpIAP. Alternatively, cells were co-transfected with 0.35 μg pcDNA3-caspase-9-Flag and 2.1 μg of either SfIAP or CpIAP. […] In some cases, lysates were prepared from transfected cells, normalized for total protein content, and analyzed by SDS-PAGE/immunoblotting as described (Deveraux, Q., et al., (1997) supra; Deveraux, Q. L., et al. (1998) supra; Roy, N. et al. (1997) supra; Takahashi, R., et al., (1998), supra.).
(§2) Baculoviral IAPs have been reported to protect mammalian cells from some apoptotic stimuli (Hawkins, C. J. et al., (1996) Proc. Natl. Acad. Sci. USA 93, 13786-13790; Hawkins, C. et al., (1998) Cell Death and Differentiation 5, 569-576; Uren, A. G. et al., (1996) Proc. Natl. Acad. Sci. USA 93, 4974-4978). Tests were performed to determine whether SfIAP is also capable of functioning as an apoptosis suppressor in a mammalian cell context. […]
(§3) Plasmids encoding various IAPs were co-transfected with Bax or Fas into 293 cells and % apoptosis was determined 24-36 hours later.

[2] = system: Fas-induced apoptosis in HEK293 cells; test: Fas-induced apoptosis in HEK293 cells (co-transfection, DAPI nuclear morphology); type: cell-based, human; settings: IAP plasmid co-transfected with Fas into HEK293 cells; % apoptosis 24-36 hours later
Description: as §1, §2, §3

caspase-7 = target: T1, caspase-7 (Homo sapiens, UniProt P55210); test: Binding to recombinant purified caspase-7; design: species or system mammalian
T1 construct: His6 (C); made in house
T1 sequence (P55210 24-198 limits assumed): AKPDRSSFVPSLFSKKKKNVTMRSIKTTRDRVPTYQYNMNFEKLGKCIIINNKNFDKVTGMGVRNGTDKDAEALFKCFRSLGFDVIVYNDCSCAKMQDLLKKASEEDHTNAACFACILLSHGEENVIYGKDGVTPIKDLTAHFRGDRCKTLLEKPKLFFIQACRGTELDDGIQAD
T1 sequence (P55210 207-303 limits assumed): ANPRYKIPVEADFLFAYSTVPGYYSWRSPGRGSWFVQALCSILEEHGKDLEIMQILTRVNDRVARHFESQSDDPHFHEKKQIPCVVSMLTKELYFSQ
Description: pGEX4T-1-SfIAP and pGEX4T-1 -CpIAP plasmids were introduced into E. coli strain BL21 (DE3) containing the plasmid pT-Trx. GST fusion proteins were obtained by induction with 0.05 mM IPTG at 25° C. for 8 hours, then purified using glutathione-Sepharose, essentially as described (Deveraux, Q., Welsh, K. & Reed, J. Methods of Enzymology in press). Caspases-3, and -7, containing C-terminal His6-tags, and caspase-8 containing an N-terminal His6-tag were purified as described previously (Stennicke, H. R. & Salvesen, G. S. (I1997) J. Biol. Chem. 272, 25719-25723; Stennicke, H., et al., (1998) J. Biol. Chem. 273, 27084-27090; Stennicke, H., et al., (1999) J. Biol. Chem. 274, 8359-8362). Caspase-9 lacking the CARD domain (ΔCARD-caspase-9) was constructed by truncating the cDNA and introducing a start codon substituting Val139. The resulting cDNA was subcloned into pET-23b and expressed in BL21 (DE3), yielding fully processed enzyme when cells were induced using 0.2 mM IPTG at OD600=0.6 for 4 hrs (Stennicke, H., Deveraux, Q., Humike, E., Reed, J., Dixit, V. & Salvesen, G. (1999) J. Biol. Chem. 274, 8359-8362). […] Concentrations of purified enzymes were determined from absorbance at 280 nm based on the molar absorption coefficients: caspase-3 (A280=26,000M−1 cm−1), caspase-7 (A280=24,500 M−1 cm−1), caspase-9 (A280=30,010M−1 cm−1). […]

B1: SfIAP: cellular IAP cloned from Spodoptera frugiperda, protein of 377 amino acids (SEQ ID NO:3); GST-fusion when recombinant (protein, listed as Spodoptera frugiperda)
chain: MWSCSLPCWNTKKSGLQMDITKVASNGSSSTLTLFKSGSLEAKIRPLAPLMLPTPSYDSNAGSPSLSPSTPCSSSSFSIDKTDNHDTFGFSADTVDMRKEDERMKTFEKWPVSFLSGEQLARNGFYYLGRRDEARCAFCKVEIMRWVEGDDPAKDHQRWAPQCPFVRKLNGTAAADTGSSGQDECGARAAPSGTSPPRMAGPVHPRYASEAARLRSFKDWPRCMRQKPEELAEAGFFYTGQGDKTKCFYCDGGLKDWENHDVPWEQHARWFDRCAYVQLVKGREYVQKVISEACEVSASEAERDVAPARTAEPSPPAEAPENSVDDSKLCKICYAEERNVCFVPCGHVVACAKCALAADKCPMCRRTFQNAVRLYFS
modifications: GST fusion when recombinant; fall armyworm inhibitor of apoptosis protein (SfIAP)
[1]
  suppression of Bax-induced apoptosis: inhibited Bax-induced apoptosis
[2]
  suppression of Fas-induced apoptosis: ineffective at suppressing Fas-induced apoptosis
caspase-7
  binding to caspase-7: neither bound

B2: CpIAP: baculoviral (CpGV) inhibitor of apoptosis protein; complete ORF expressed myc-tagged or as GST-fusion (protein)
chain: MSDLRLEEVRLNTFEKWPVSFLSPETMAKNGFYYLGRSDEVRCAFCKVEIMRWKEGEDPAADHKKWAPQCPFVKGIDVCGSIVTTNNIQNTTTHDTIIGPAHPKYAHEAARVKSFHNWPRCMKQRPEQMADAGFFYTGYGDNTKCFYCDGGLKDWEPEDVPWEQHVRWFDRCAYVQLVKGRDYVQKVITEACVLPGENTTVSTAAPVSEPIPETKIEKEPQVEDSKLCKICYVEECIVCFVPCGHVVACAKCALSVDKCPMCRKIVTSVLKVYFS
modifications: left off: a dimerising Fc or GST
notes: complete ORF expressed myc-tagged or as GST-fusion
[1]
  suppression of Bax-induced apoptosis: inhibited Bax-induced apoptosis
[2]
  suppression of Fas-induced apoptosis: ineffective at suppressing Fas-induced apoptosis
caspase-7
  binding to caspase-7: neither bound
